Results from patent publication US20160264649A1.

Key:
Assay in all cases: cell-based or functional assay
[1] = target: HIV-1 Env of isolate MGRM-D-014 (subtype D) (HIV-1)
[2] = target: HIV-1 Env of isolate MGRM-D-002 (subtype D) (HIV-1)
[3] = target: HIV-1 Env of isolate MGRM-D-026 (subtype D) (HIV-1)
[4] = target: HIV-1 Env of isolate MGRM-D-024 (subtype D) (HIV-1)
[5] = target: HIV-1 Env of isolate MGRM-D-003 (subtype D) (HIV-1)
[6] = target: HIV-1 Env of isolate MGRM-F1-015 (subtype F) (HIV-1)
[7] = target: HIV-1 Env of isolate MGRM-F1-012 (subtype F) (HIV-1)
[8] = target: HIV-1 Env of isolate MGRM-D-016 (subtype D) (HIV-1)
[9] = target: HIV-1 Env of isolate MGRM-D-019 (subtype D) (HIV-1)
[10] = target: HIV-1 Env of isolate 93UG077 (subtype A) (HIV-1)
[11] = target: HIV-1 Env of isolate MGRM-AE-003 (subtype AE) (HIV-1)
[12] = target: HIV-1 Env of isolate MGRM-D-029 (subtype D) (HIV-1)
[13] = target: HIV-1 Env of isolate 92UG037 (subtype A) (HIV-1)
[14] = target: HIV-1 Env of isolate MGRM-F1-017 (subtype F) (HIV-1)
[15] = target: HIV-1 Env of isolate MGRM-F1-020 (subtype F) (HIV-1)
[16] = target: HIV-1 Env of isolate MGRM-AE-008 (subtype AE) (HIV-1)
[17] = target: HIV-1 Env of isolate MGRM-F1-014 (subtype F) (HIV-1)
[18] = target: HIV-1 Env of isolate 94 KE 105 (subtype AC) (HIV-1)
[19] = target: HIV-1 Env of isolate MGRM-D-005 (subtype D) (HIV-1)
[20] = target: HIV-1 Env of isolate 94UG103 (subtype A) (HIV-1)
[21] = target: HIV-1 Env of isolate 92WR024 (subtype A) (HIV-1)
[22] = target: HIV-1 Env of isolate MGRM-F1-008 (subtype F) (HIV-1)
[23] = target: HIV-1 Env of isolate MGRM-D-020 (subtype D) (HIV-1)
[24] = target: HIV-1 Env of isolate MGRM-D-001 (subtype D) (HIV-1)
[25] = target: HIV-1 Env of isolate MGRM-D-011 (subtype D) (HIV-1)
[26] = target: HIV-1 Env of isolate MGRM-D-012 (subtype D) (HIV-1)
[27] = target: HIV-1 Env of isolate VLGCA1 (subtype A) (HIV-1)
[28] = target: HIV-1 Env of isolate 92TH021 (subtype AE) (HIV-1)
[29] = target: HIV-1 Env of isolate 92WR009 (subtype A) (HIV-1)
[30] = target: HIV-1 Env of isolate MGRM-F1-013 (subtype F) (HIV-1)
[31] = target: HIV-1 Env of isolate MGRM-AE-005 (subtype AE) (HIV-1)
[32] = target: HIV-1 Env of isolate MGRM-D-013 (subtype D) (HIV-1)
[33] = target: HIV-1 Env of isolate MGRM-F1-010 (subtype F) (HIV-1)
[34] = target: HIV-1 Env of isolate MGRM-D-021 (subtype D) (HIV-1)
[35] = target: HIV-1 Env of isolate MGRM-D-028 (subtype D) (HIV-1)
[36] = target: HIV-1 Env of isolate MGRM-AE-007 (subtype AE) (HIV-1)
[37] = target: HIV-1 Env of isolate MGRM-F1-006 (subtype F) (HIV-1)
[38] = target: HIV-1 Env of isolate 92UG031 (subtype A) (HIV-1)
[39] = target: HIV-1 Env of isolate MGRM-AE-006 (subtype AE) (HIV-1)
[40] = target: HIV-1 Env of isolate 92WR026 (subtype A) (HIV-1)
[41] = target: HIV-1 Env of isolate MGRM-F1-016 (subtype F) (HIV-1)
[42] = target: HIV-1 Env of isolate MGRM-AE-001 (subtype AE) (HIV-1)
[43] = target: HIV-1 Env of isolate CMU02 (subtype AE) (HIV-1)
[44] = target: HIV-1 Env of isolate MGRM-F1-021 (subtype F) (HIV-1)
[45] = target: HIV-1 Env of isolate MGRM-F1-023 (subtype F) (HIV-1)
[46] = target: HIV-1 Env of isolate 93WR029 (subtype A) (HIV-1)
[47] = target: HIV-1 Env of isolate 92WR020 (subtype A) (HIV-1)
[48] = target: HIV-1 Env of isolate MGRM-F1-022 (subtype F) (HIV-1)
[49] = target: HIV-1 Env of isolate MGRM-D-004 (subtype D) (HIV-1)
[50] = target: HIV-1 Env of isolate MGRM-D-018 (subtype D) (HIV-1)
[51] = target: HIV-1 Env of isolate MGRM-D-008 (subtype D) (HIV-1)
[52] = target: HIV-1 Env of isolate MGRM-AE-002 (subtype AE) (HIV-1)
[53] = target: HIV-1 Env of isolate MGRM-F1-004 (subtype F) (HIV-1)
[54] = target: HIV-1 Env of isolate MGRM-F1-018 (subtype F) (HIV-1)
[55] = target: HIV-1 Env of isolate 92WR021 (subtype A) (HIV-1)
[56] = target: HIV-1 Env of isolate MGRM-D-022 (subtype D) (HIV-1)
[57] = target: HIV-1 Env of isolate 92UG114 (subtype D) (HIV-1)
[58] = target: HIV-1 Env of isolate MGRM-AE-004 (subtype AE) (HIV-1)

PGT-145 (4995_P16) (antibody), sequence (VH): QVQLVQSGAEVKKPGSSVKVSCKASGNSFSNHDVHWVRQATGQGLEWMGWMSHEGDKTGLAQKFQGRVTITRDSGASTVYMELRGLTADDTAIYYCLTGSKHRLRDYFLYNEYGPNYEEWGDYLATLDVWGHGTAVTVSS
PGT-145 (4995_P16) (antibody), sequence (VL): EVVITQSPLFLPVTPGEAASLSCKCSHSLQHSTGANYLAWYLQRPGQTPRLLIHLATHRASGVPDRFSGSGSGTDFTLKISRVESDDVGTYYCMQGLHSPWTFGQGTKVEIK

PGT-145 (4995_P16) (antibody)
IC50 (pseudovirus neutralization) [1]: 2.51 µg/mL
IC50 (pseudovirus neutralization) [2]: > 50 µg/mL
IC50 (pseudovirus neutralization) [3]: 0.41 µg/mL
IC50 (pseudovirus neutralization) [4]: 0.224 µg/mL
IC50 (pseudovirus neutralization) [5]: 0.006 µg/mL
IC50 (pseudovirus neutralization) [6]: 1.76 µg/mL
IC50 (pseudovirus neutralization) [7]: 0.113 µg/mL
IC50 (pseudovirus neutralization) [8]: > 50 µg/mL
IC50 (pseudovirus neutralization) [9]: 0.111 µg/mL
IC50 (pseudovirus neutralization) [10]: > 50 µg/mL
IC50 (pseudovirus neutralization) [11]: 0.552 µg/mL
IC50 (pseudovirus neutralization) [12]: 0.03 µg/mL
IC50 (pseudovirus neutralization) [13]: 3.15 µg/mL
IC50 (pseudovirus neutralization) [14]: 0.286 µg/mL
IC50 (pseudovirus neutralization) [15]: 0.816 µg/mL
IC50 (pseudovirus neutralization) [16]: 1.46 µg/mL
IC50 (pseudovirus neutralization) [17]: 0.009 µg/mL
IC50 (pseudovirus neutralization) [18]: 1.32 µg/mL
IC50 (pseudovirus neutralization) [19]: 10.4 µg/mL
IC50 (pseudovirus neutralization) [20]: 0.331 µg/mL
IC50 (pseudovirus neutralization) [21]: 0.069 µg/mL
IC50 (pseudovirus neutralization) [22]: 0.228 µg/mL
IC50 (pseudovirus neutralization) [23]: 10 µg/mL
IC50 (pseudovirus neutralization) [24]: 0.56 µg/mL
IC50 (pseudovirus neutralization) [25]: 14.7 µg/mL
IC50 (pseudovirus neutralization) [26]: > 50 µg/mL
IC50 (pseudovirus neutralization) [27]: 8.01 µg/mL
IC50 (pseudovirus neutralization) [28]: 0.013 µg/mL
IC50 (pseudovirus neutralization) [29]: 0.026 µg/mL
IC50 (pseudovirus neutralization) [30]: 0.402 µg/mL
IC50 (pseudovirus neutralization) [31]: 0.967 µg/mL
IC50 (pseudovirus neutralization) [32]: 3.48 µg/mL
IC50 (pseudovirus neutralization) [33]: 3.32 µg/mL
IC50 (pseudovirus neutralization) [34]: > 50 µg/mL
IC50 (pseudovirus neutralization) [35]: 0.721 µg/mL
IC50 (pseudovirus neutralization) [36]: 0.181 µg/mL
IC50 (pseudovirus neutralization) [37]: 13.6 µg/mL
IC50 (pseudovirus neutralization) [38]: 3.22 µg/mL
IC50 (pseudovirus neutralization) [39]: > 50 µg/mL
IC50 (pseudovirus neutralization) [40]: 1.45 µg/mL
IC50 (pseudovirus neutralization) [41]: 17.5 µg/mL
IC50 (pseudovirus neutralization) [42]: 20.9 µg/mL
IC50 (pseudovirus neutralization) [43]: 1.43 µg/mL
IC50 (pseudovirus neutralization) [44]: 8.04 µg/mL
IC50 (pseudovirus neutralization) [45]: 5.88 µg/mL
IC50 (pseudovirus neutralization) [46]: > 50 µg/mL
IC50 (pseudovirus neutralization) [47]: 0.997 µg/mL
IC50 (pseudovirus neutralization) [48]: 0.009 µg/mL
IC50 (pseudovirus neutralization) [49]: 10.9 µg/mL
IC50 (pseudovirus neutralization) [50]: 0.065 µg/mL
IC50 (pseudovirus neutralization) [51]: 0.025 µg/mL
IC50 (pseudovirus neutralization) [52]: 1.87 µg/mL
IC50 (pseudovirus neutralization) [53]: 0.361 µg/mL
IC50 (pseudovirus neutralization) [54]: 1.02 µg/mL
IC50 (pseudovirus neutralization) [55]: 1.62 µg/mL
IC50 (pseudovirus neutralization) [56]: 34.3 µg/mL
IC50 (pseudovirus neutralization) [57]: 20.1 µg/mL
IC50 (pseudovirus neutralization) [58]: 0.006 µg/mL
